According to paper PMC11746154:

B1: Gal4AD-Spo11 [S. cerevisiae] / LexA-Rec102 [S. cerevisiae] (parent)
chain 1: MALEGLRKKYKTRQELVKALTPKRRSIHLNSNGHSNGTPCSNADVLAHIKHFLSLAANSLEQHQQPISIVFQNKKKKGDTSSPDIHTTLDFPLNGPHLCTHQFKLKRCAILLNLLKVVMEKLPLGKNTTVRDIFYSNVELFQRQANVVQWLDVIRFNFKLSPRKSLNIIPAQKGLVYSPFPIDIYDNILTCENEPKMQKQTIFPGKPCLIPFFQDDAVIKLGTTSMCNIVIVEKEAVFTKLVNNYHKLSTNTMLITGKGFPDFLTRLFLKKLEQYCSKLISDCSIFTDADPYGISIALNYTHSNERNAYICTMANYKGIRITQVLAQNNEVHNKSIQLLSLNQRDYSLAKNLIASLTANSWDIATSPLKNVIIECQREIFFQKKAEMNEIDARIFEYK
chain 2: MARDITFLTVFLESCGAVNNDEAGKLLSAWTSTVRIEGPESTDSNSLYIPLLPPGMLKIKLNFKMNDRLVTEEQELFTKLREIVGSSIRFWEEQLFYQVQDVSTIENHVILSLKCTILTDAQISTFISKPRELHTHAKGYPEIYYLSELSTTVNFFSKEGNYVEISQVIPHFNEYFSSLIVSQLEFEYPMVFSMISRLRLKWQQSSLAPISYALTSNSVLLPIMLNMIAQDKSSTTAYQILCRRRGPPIQNFQIFSLPAVTYNK

Variants of: B1
Experiment: Y2H quantitative β-galactosidase assay
Details: with LexA-Rec102 [S. cerevisiae]; parent: 1; read off a plot

response (normalized β-gal units)	Variant
0.17	chain 1 MALEGLRKKYKTRQELVKALTPKRRSIHLNSNGHSNGTPCSNADVLAHIKHFLSLAANSLEQHQQPISIVFQNKKKKGDTSSPDIHTTLDFPLNAPHLCTHQFKLKRCAILLNLLKVVMEKLPLGKNTTVRDIFYSNVELFQRQANVVQWLDVIRFNFKLSPRKSLNIIPAQKGLVYSPFPIDIYDNILTCENEPKMQKQTIFPGKPCLIPFFQDDAVIKLGTTSMCNIVIVEKEAVFTKLVNNYHKLSTNTMLITGKGFPDFLTRLFLKKLEQYCSKLISDCSIFTDADPYGISIALNYTHSNERNAYICTMANYKGIRITQVLAQNNEVHNKSIQLLSLNQRDYSLAKNLIASLTANSWDIATSPLKNVIIECQREIFFQKKAEMNEIDARIFEYK [chain 1 G95A]
0.27	chain 1 MAAEGLRKKYKTRQELVKALTPKRRSIHLNSNGHSNGTPCSNADVLAHIKHFLSLAANSLEQHQQPISIVFQNKKKKGDTSSPDIHTTLDFPLNGPHLCTHQFKLKRCAILLNLLKVVMEKLPLGKNTTVRDIFYSNVELFQRQANVVQWLDVIRFNFKLSPRKSLNIIPAQKGLVYSPFPIDIYDNILTCENEPKMQKQTIFPGKPCLIPFFQDDAVIKLGTTSMCNIVIVEKEAVFTKLVNNYHKLSTNTMLITGKGFPDFLTRLFLKKLEQYCSKLISDCSIFTDADPYGISIALNYTHSNERNAYICTMANYKGIRITQVLAQNNEVHNKSIQLLSLNQRDYSLAKNLIASLTANSWDIATSPLKNVIIECQREIFFQKKAEMNEIDARIFEYK [chain 1 L3A]
0.3	chain 1 MALEGLRKKYKTRQEAVKALTPKRRSIHLNSNGHSNGTPCSNADVLAHIKHFLSLAANSLEQHQQPISIVFQNKKKKGDTSSPDIHTTLDFPLNGPHLCTHQFKLKRCAILLNLLKVVMEKLPLGKNTTVRDIFYSNVELFQRQANVVQWLDVIRFNFKLSPRKSLNIIPAQKGLVYSPFPIDIYDNILTCENEPKMQKQTIFPGKPCLIPFFQDDAVIKLGTTSMCNIVIVEKEAVFTKLVNNYHKLSTNTMLITGKGFPDFLTRLFLKKLEQYCSKLISDCSIFTDADPYGISIALNYTHSNERNAYICTMANYKGIRITQVLAQNNEVHNKSIQLLSLNQRDYSLAKNLIASLTANSWDIATSPLKNVIIECQREIFFQKKAEMNEIDARIFEYK [chain 1 L16A]
0.15	chain 1 MALEGLRKKYKTRQELVKALTPKRRSIHLNSNGHSNGTPCSNADVLAHIKHFLSLAANSLEQHQQPISIVFQNKKKKGDTSSPDIHTTLDFPANGPHLCTHQFKLKRCAILLNLLKVVMEKLPLGKNTTVRDIFYSNVELFQRQANVVQWLDVIRFNFKLSPRKSLNIIPAQKGLVYSPFPIDIYDNILTCENEPKMQKQTIFPGKPCLIPFFQDDAVIKLGTTSMCNIVIVEKEAVFTKLVNNYHKLSTNTMLITGKGFPDFLTRLFLKKLEQYCSKLISDCSIFTDADPYGISIALNYTHSNERNAYICTMANYKGIRITQVLAQNNEVHNKSIQLLSLNQRDYSLAKNLIASLTANSWDIATSPLKNVIIECQREIFFQKKAEMNEIDARIFEYK [chain 1 L93A]

The remaining lines, values behind:

Variant	response (normalized β-gal units)
chain 1 MALEGLRKKYKTRQELVKALTPKRRSIHLNSNGHSNGTPCSNADVLAHIKHFLSLAANSLEQHQQPISIVFQNKKKKGDTSSPDIHTTLDFPLNGPHLCTHQAKLKRCAILLNLLKVVMEKLPLGKNTTVRDIFYSNVELFQRQANVVQWLDVIRFNFKLSPRKSLNIIPAQKGLVYSPFPIDIYDNILTCENEPKMQKQTIFPGKPCLIPFFQDDAVIKLGTTSMCNIVIVEKEAVFTKLVNNYHKLSTNTMLITGKGFPDFLTRLFLKKLEQYCSKLISDCSIFTDADPYGISIALNYTHSNERNAYICTMANYKGIRITQVLAQNNEVHNKSIQLLSLNQRDYSLAKNLIASLTANSWDIATSPLKNVIIECQREIFFQKKAEMNEIDARIFEYK [chain 1 F103A]	0.35
chain 1 MALEGLRKKYKTRQELVKALTPKRRSIHLNSNGHSNGTPCSNADVLAHIKHFLSLAANSAEQHQQPISIVFQNKKKKGDTSSPDIHTTLDFPLNGPHLCTHQFKLKRCAILLNLLKVVMEKLPLGKNTTVRDIFYSNVELFQRQANVVQWLDVIRFNFKLSPRKSLNIIPAQKGLVYSPFPIDIYDNILTCENEPKMQKQTIFPGKPCLIPFFQDDAVIKLGTTSMCNIVIVEKEAVFTKLVNNYHKLSTNTMLITGKGFPDFLTRLFLKKLEQYCSKLISDCSIFTDADPYGISIALNYTHSNERNAYICTMANYKGIRITQVLAQNNEVHNKSIQLLSLNQRDYSLAKNLIASLTANSWDIATSPLKNVIIECQREIFFQKKAEMNEIDARIFEYK [chain 1 L60A]	0.62
chain 1 MALEGLRKKYKTRQELVKALTPKRRSIHLNSNGHSNGTPCSNADVLAHIKHFLSLAANSLEQHQQPISIVFQNKKKKGDTSSPDIHTTLDFPLNGPHLCTHQFKAKRCAILLNLLKVVMEKLPLGKNTTVRDIFYSNVELFQRQANVVQWLDVIRFNFKLSPRKSLNIIPAQKGLVYSPFPIDIYDNILTCENEPKMQKQTIFPGKPCLIPFFQDDAVIKLGTTSMCNIVIVEKEAVFTKLVNNYHKLSTNTMLITGKGFPDFLTRLFLKKLEQYCSKLISDCSIFTDADPYGISIALNYTHSNERNAYICTMANYKGIRITQVLAQNNEVHNKSIQLLSLNQRDYSLAKNLIASLTANSWDIATSPLKNVIIECQREIFFQKKAEMNEIDARIFEYK [chain 1 L105A]	0.05

Same assay, conditions: with Gal4AD-Spo11 [S. cerevisiae]; parent: 1; read off a plot

response (normalized β-gal units)	Variant
0.1	chain 2 MARDITFLTVFLESCGAVNNDEAGKLLSAWTSTVRIEGPESTDSNSLYIPLLPPGMLKIKLNFKMNDRLVTEEQELFTKLREIVGSSIRFWEEQLFYQVQDVSTIENHVILSLKCTILTDAQISTFISKPRELHTHAKGYPEIYYLSELSTTVNFFSKEGNYVEISQVIPHFNEYFSSLIVSQLEFEYPMVFSMISRLRLKAQQSSLAPISYALTSNSVLLPIMLNMIAQDKSSTTAYQILCRRRGPPIQNFQIFSLPAVTYNK [chain 2 W202A]
0.27	chain 2 MARDITFLTVFLESCGAVNNDEAGKLLSAWTSTVRIEGPESTDSNSLYIPLLPPGMLKIKLNFKMNDRLVTEEQELFTKLREIVGSSIRFWEEQLFYQVQDVSTIENHVILSLKCTILTDAQISTFISKPRELHTHAKGYPEIYYLSELSTTVNFFSKEGNYVEISQVIPHFNEYFSSLIVSQLEFEYPMVFSMISRLRLKWQQSSLAPISYALTSNSVLLPIMLNMIAQDKSSTTAYAILCRRRGPPIQNFQIFSLPAVTYNK [chain 2 Q239A]
